Measurements: the nanobody polyreactivity screen of Harvey et al. (2022)

assay: yeast display, Sf9 membrane polyspecificity reagent, FACS + sequencing; frameworks hold sequencing errors
Method in brief: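 Nanobodies came from a synthetic yeast display library in Saccharomyces cerevisiae BJ5465, induced with galactose for 36–48 hours and stained for 1 hour at 4 °C with 10% biotinylated, detergent-solubilized Sf9 membrane reagent. Cells were enriched on streptavidin microbeads and then FACS-sorted, with low and high (top ~1%) gates set on anti-HA fluorescence for expression and streptavidin fluorescence for reagent binding. Each polyreactivity label reflects the gate a clone came from. Genes were amplified by colony PCR, sequenced by MiSeq 2 × 250 and filtered by CDR length.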

Sequence	polyreactivity (PSR sort gate)
QDQLVESGGGLVQAGGSLRLSCAASGYTFRYNAMGWYIQATGKERELVATITRGGSTNYADSVKGRFTISRDNAKNTVYLQMNSLKPEDTAVYYCNKEAAPLAFVPSYYGRDYWGQGTEVTVSS	low polyreactivity
QVQLVESGGGLVQAGGSLRLSCAASGFTFDKNAMGWYRQAPGKERELVAAINIGSTYYADSVKGRFTISRDNAKNTVYLQMNSLKPEDSAVYYCAKEVPSGYWVNYYYWGQGTQVTVSS	low polyreactivity
QVQHVESGGGLVQAGGSLRLSCAASGSTYNGYAMGWYRQATGKERELVAAISTSGGSTYYADSVKGRFTISRDNAKNTVYLQMNSLKPEDTAVYYCATYYGKRYMRRVDYWGQGTQVTVSS	high polyreactivity
QVQLVESGGGLVQAGGSLRLSCAASGSIFVRYTMGWYRQAPGKERELVAGISSRGGSTYYADSVKGRFTISRDNAKNTVYLQMNSLKPEDTAVYYCAATYFRRVVPGYNYWGQGTQVTVSS	high polyreactivity
QVHLVESGGGLVQAGGSLRLSCAASGITFRRYGMGWYRQAPGKERELVATITSSVGSRTYYADSVKGRFTISRDNAKNTVYLQMNSLKPEDTAVYYCAADHRVYDYEYWGQGTQVTVSS	low polyreactivity
QVQLVESGGGLVQAGGSLRLSCAASGGTLGLNAMGRTRQAPGKEREFVAAINRSGGSTRYADSVKGRFTISRDNAKNTVYLQMISLKPEDTAVYYCNAASWTFQTTPKYDYWGQGTQVTVSS	high polyreactivity
QVHLVESGGVLVQAGGSLRLSCAASGRIFYRYAMGWYRQAPGKERELVAAITHRGGSTYYADSVKGRFTISRDNAKNTVYLQMNSLKPEDTAVYYCAGRITEAVADYVGHKPYDYWGQGTQVTVSS	low polyreactivity
QVQLVESGGGLVQAGGSLRLSCAASGFTFTSYVMGWSRQAPGKEREFVAAITRSAGGTYYADSVKGRFTISRDNAKNTVYLQMNSLKPEDTAVYYCAAVYRSGSRYYLGWYNYWGQGTQVTVSS	high polyreactivity
QVQLVESGGGLLQAGGSLRLSCAASGRIFTWNAMGWYRQAPGKERELVARISSGTPTNYADSLKGRFTISRDNAKNTVYLQMNCLKPEDTAVYYCAAQSRPPFVKQYWWQRDYWGQATQVTVSS	high polyreactivity
QVQLLETGRGLVQAGGSLRLSCASSGSIFFLYAMGWYRQAPGKERELVAAINWRTGRTYYADSVKWRFTISRDNAKNTVYFQMNSLKPEDTEVYYCAARSVPSPERGFYYWGQGTQVTVSS	high polyreactivity
QVQLVESGGGLVQAGGSLRLICAASGFTFDFYAMGWYRQAPGKERELVATISYSGASTYYADSVKGRFTISRDNAKNTVYLEMNSLKPEVTAVYYCAAYYPTRYQYGTIWVAYNYWGQGTQVTVSS	low polyreactivity
QVQLVESGGGLVQAGGSLRLSCAASGRIFPGNAMGGYRQAPGKERELVATISRIGGSTYADSVKGRFTISRDNAKNTVYLQMNSLKPEDTAVYYCAKTWVSRDVEYDYWGQGTQVTVSS	low polyreactivity
QVQLVESGGGLVQAGGSLRLSCAASGSIFSQNAMGWYRQAPGKERELVASITYSGGSTYYADSVKGRFTISRDNAKNTVYFQMNSLKPEDTEVYYCAADVRYSSRFYYWGQGTQVTVSS	high polyreactivity
QVQLVESGGGLVQAGGSLRLSCAASGIIFKIYAMGWYRQAPGKERELVAAITRSGTRTYYADSVKGRFTISRDNAKNTVYLQMNSLKPEDTAVYYCNAYTTLAYDLDYWGQGTQVTVSS	high polyreactivity
QVQLVESGGGLVQAGGSLRLSCAASGFSFWSNDMGWSRQAPGKEREFVAAITTSGGNTYYADSVKGRFTISRDNAKNTVYLQMQSLKPEDTAVYYCAAEEGSTDATGYDYWGEGTQVTVSS	low polyreactivity
QDQLVESGGGLVQAGGSLSLSCAASGRNFFHNAMGWYRQAPGKERELVASITSGDGTYYADSVKGRFTISRDNAKNTVYLQMNSMKPEDTEVYSCAAEPGSIAYYYTRVGLYYWGQGTQVTVSS	low polyreactivity
QVQLVESGGGLVQAGGSLSLSCAASGSILFTNAMGWYRQAPGKERELVAAISSGGSTYYADSVKGRFTISRDNAKNTVYLQMNSLKPEDTAVYYCAASDHYRWYVHRWEDPFYYWGQGTQVTLSS	low polyreactivity
